Test results reported in paper PMC1851628 (Nucleic Acids Research, 2007).

Molecular target: the molecule itself
Test: AUC

B1: RepB initiator protein of plasmid pMV158 (natural protein, UniProt P13921 1-210, looked up)
chain: MAKEKARYFTFLLYPESIPSDWELKLETLGVPMAISPLHDKDKSSIKGQKYKKAHYHVLYIAKNPVTADSVRKKIKLLLGEKSLAMVQVVLNVENMYLYLTHESKDAIAKKKHVYDKADIKLINNFDIDRYVTLDVEEKTELFNVVVSLIRAYTLQNIFDLYDFIDENGETYGLTINLVNEVIAGKTGFMKLLFDGAYQRSKRGTKNEER
For B1, the “stoichiometry N” value was 6.
